{
  "source": "patent US20140341939A1",
  "about": "(NATIONAL UNIVERSITY CORPORATION KOCHI UNIVERSITY, priority 2011, published 2014)",
  "key": {"[1]": {"target": "T1, HLA-DR molecule (Homo sapiens, UniProt P01903+P01911, A100R/A169T/D86S/F76Y/I96L/K127E/L162R/M171V/N62H/P40V/Q125Y/R42H/S133A/S149N/S66Y/V115G/V209L/W38E)", "T1 construct": "expressed in transfected cells; host or cells: CH1-DR4 (CH1-DRB1*04:05) cells", "experiment": "Binding of biotinylated W332 peptide to CH1-DR4 cell", "settings": "cultured 5 hr, FITC-streptavidin, flow cytometry (FIG. 29A)"}, "[2]": {"target": "T2, HLA-DR4 molecule (Homo sapiens, UniProt P01903+P01911, A100R/A169T/D86S/F76Y/I96L/K127E/L162R/M171V/N62H/P40V/Q125Y/R42H/S133A/S149N/S66Y/V115G/V209L/W38E)", "T2 construct": "expressed in transfected cells; host or cells: CH1-DRB1*04:05 (CH1-DR4) cells", "experiment": "Peptide binding to HLA-DR4 molecule on CH1-DR4 cells with p-chlorophenol", "settings": "PCP added, 37° C. 4 hr, FITC-streptavidin (FIG. 31)", "description": "CH1-DRB1*04:05 cells (CH1-DR4 cells) were suspended in 20% FCS IMDM ([…]) at 2×10^6/ml, so that 50 μl could provide 1×10^5 cells/well in a 96 well U plate. Then, 20 μM bTR174 (PSK^bio[…]^bioPβA: SEQ ID NO: 41) (biotinylation index peptide) was added at 100 μl per well, and IMDM containing 8 mM PCP was further added at 50 μl per well, and finally, CH1-DR4 cells were added at 50 μl (1×10^5/well) and the mixture was incubated at 37° C. for 4 hr. Free peptide was removed by centrifugation, the cells were stained with FITC-streptavidin, and measured by flow cytometer. […] By adding a competitive peptide, which is generated by adding a peptidase resistant sequence to the terminal of an unlabeled peptide, to this experiment system, the binding activity of the unlabeled peptide can be quantitatively measured."}, "[3]": {"test_system": "Th cell", "experiment": "In vivo immunization using modified molecule of WA36 (IFN-γ positive Th cells)", "design": "species or system mouse", "settings": "IFN-γ positive Th cells (FIG. 27)"}},
  "note": "Where no end group is shown, it is not given here. [ ]: non-standard residue; d: D form. The star is where a group is joined. Biotin = O=C1N[C@H]2[C@H](CS[C@H]2CCCCC(=O)*)N1; βAla = NCCC(=O)O",
  "data": [
    {"substance": "PSK^bioKRYFKLSHLQMHSRKHK^bioPβA (PSK(Biotin)KRYFKLSHLQMHSRKHK(Biotin)P[βAla]) [PbW332bPβ]", "values": [
      {"measurement": "binding to cell that expresses HLA-DR molecule", "setting": "[1]", "result": "bind to CH1-DR4 cell"}
    ]},
    {"substance": "PSK^bioREFKLSKVWRDQK^bioPβA (PSK(Biotin)REFKLSKVWRDQK(Biotin)P[βAla]) [bTR174, biotinylation index peptide]", "values": [
      {"measurement": "binding of biotin-labeled peptide to HLA-DR4 molecule", "setting": "[2]", "result": "replaced a peptide endogenously bound to an HLA-DR4 molecule, in a PCP concentration dependent manner"}
    ]},
    {"substance": "PVLDFAPPGASAYGS [WA36, WT1 antigen-derived polypeptide]", "values": [
      {"measurement": "induction of Th cell to the tumor antigen in in vivo immunization", "setting": "[3]", "result": "induction of Th cell was extremely difficult"}
    ]}
  ]
}
